Target: GST-Stat3 fusion protein (UniProt P42227)
Sequence (P42227 whole entry, the tested form may be a part): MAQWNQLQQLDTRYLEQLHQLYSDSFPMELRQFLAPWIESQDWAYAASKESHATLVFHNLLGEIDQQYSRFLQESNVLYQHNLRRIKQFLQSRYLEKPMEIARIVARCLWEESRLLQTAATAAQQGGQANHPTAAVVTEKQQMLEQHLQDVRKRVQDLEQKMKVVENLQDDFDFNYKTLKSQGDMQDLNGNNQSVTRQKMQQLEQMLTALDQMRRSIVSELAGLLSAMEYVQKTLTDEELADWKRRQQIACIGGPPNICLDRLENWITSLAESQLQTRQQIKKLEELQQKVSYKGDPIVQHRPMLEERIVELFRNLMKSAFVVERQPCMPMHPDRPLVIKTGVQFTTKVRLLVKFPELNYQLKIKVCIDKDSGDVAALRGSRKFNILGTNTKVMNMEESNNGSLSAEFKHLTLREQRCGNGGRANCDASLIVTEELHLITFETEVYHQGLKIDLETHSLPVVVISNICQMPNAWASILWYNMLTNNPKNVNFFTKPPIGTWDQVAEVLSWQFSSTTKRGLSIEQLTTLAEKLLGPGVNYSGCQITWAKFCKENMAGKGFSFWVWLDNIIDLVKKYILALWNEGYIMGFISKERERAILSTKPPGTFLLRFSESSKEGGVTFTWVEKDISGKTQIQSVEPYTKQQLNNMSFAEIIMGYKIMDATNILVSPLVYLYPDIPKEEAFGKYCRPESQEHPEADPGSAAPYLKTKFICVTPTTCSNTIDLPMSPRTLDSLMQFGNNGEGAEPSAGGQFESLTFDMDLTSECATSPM

## mutated mouse PRMT2-Flag lacking functional Ado-Met domain (alanine for 145-GCGTG-149)
  in vitro methylation with [3H]-AdoMet: transfection of neither vector alone nor mutated PRMT2-Flag cDNA induced methylation of GST-Stat3 (FIG. 20A, lanes 4 and 5)
